Source: the nanobody polyreactivity screen of Harvey et al. (2022)

Assay: yeast display, Sf9 membrane polyspecificity reagent, FACS + sequencing; frameworks hold sequencing errors
Method in brief: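 After 36–48 hours of galactose induction, yeast (Saccharomyces cerevisiae BJ5465) displaying a synthetic nanobody library were stained at 4 °C for 1 hour with 10% biotinylated, detergent-solubilized Sf9 membrane reagent. Streptavidin microbeads enriched the stained cells before FACS sorting into low and high (top ~1%) gates on anti-HA and streptavidin fluorescence. Each clone's polyreactivity label reflects its gate of origin.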

QVQLVESGGGLVQAGGSLRLSCADSGSIFVKNAMGWYRQAPGKERELVATISTGGRTYYADSVKGRFTISLDNAKNTVYLQMNSLKPEDTAVYYCATDFYPRYLLRTYRPYYYWGQGTQVTVSS
polyreactivity (PSR sort gate): low polyreactivity

QVQLVESGGGLVQAGGSLRLSCAASGSIFPYYAMGWYRQAPGKEWEFVAAISRRGGSTNYADSVKGRFTISRDTAKNTVYLQMNSLKPEDTAVYYCGKYTSYSRGYDYWGQGTQVTVSS
polyreactivity (PSR sort gate): high polyreactivity

QVQLHESGRGLVQAGGSLRLSCAATATISYAGPMGWYRQAPGKEREFVAGIGVGSNTNYADSVKGRYTIIRDNAKNTVYLQMNSLKPEDTAVYSCAVGGYAPLGRPYWGQGTQVTVSS
polyreactivity (PSR sort gate): low polyreactivity

QVQLVESGGGLVPAGGSLPLSCAASGSTFSGHTMGWYRQAPGQDWELVADINWSSGSTYYADSVKGRFTISRDNAKNNVYLQMHSLKPEDTALLYCAAVEPFSDFDYWGQGTQVTLSS
polyreactivity (PSR sort gate): low polyreactivity

QVQIVESGGGLVQAGGSLRLRCAASGITFSIYAMGWYRQAPGKERELVAAIDSGGGTNYADSVKGRFTISLDNAKNTVYLQMNSLKAEDTAVYYCAADFLKVDWYDYWGQGTQVTVSS
polyreactivity (PSR sort gate): low polyreactivity

QVQLVESGGGLVQAGGSLRLSCAASGFIFGSYTMGWYRQAPGKERELVAAITTGGSTNYADSVKGRFTISRDNAKNTVYLQMNSLKPEDTAVYYCNAVWYYRGNPDIYGGLDYWGQGTQVTVSS
polyreactivity (PSR sort gate): low polyreactivity

QVQLVESGGGLVQAGGSLRLTCAASGRTLYRYAMGWYRQAPGKERELVAAITNGGSTKYADSVKGRFTISRDNAKNTVYLQMNSLKPEDTAVYYCYAVVNFILLRIYYGQLYNYWGQGTQVTVSS
polyreactivity (PSR sort gate): low polyreactivity

QVQLVESGGGLVQAGGSLRLSCAASGGTFSVYGMGGYRQAPGKERELVAAITLSGGRTYYADSVKGRFTISRDNATNTLSLQMNSLQPEDTAVYYCNTLPWSRTKRDYWGQGTQGTVSS
polyreactivity (PSR sort gate): low polyreactivity

QVQLVESGGGLVQAGGSLRLSCAASGITFHRYAMGWYRQAPGKERELVAAITKRGGSTNYADSVKGRFTISRDNAKNTVYLQMNSLKPEDTAVYYCNARSTWPSGRYAHYRRYYYWGQGTQVTVSS
polyreactivity (PSR sort gate): high polyreactivity

QVQLVESGGGLVQAGGSLRLSCAASGRIFPTNAMGWYRQPPGKEREFVAAITWRGGSTYYADSVKGRFTISRDNAKNTVYLQMNSLKPEDTAVYYCAAELDYFPGYDYWGQGTQVTLSS
polyreactivity (PSR sort gate): low polyreactivity

QVPLEESGGGLVQAGGSLRLSCAASGFIIGLNAMGWYRQAPGKERELVAVITFSGGSTYYADSVKGRFTISRDNAKNTVFFQMNSLKPEDTAVYYCAARYYWYSVGYGYWGQGTQVTVSS
polyreactivity (PSR sort gate): high polyreactivity

QVQPQESGGGPVQACGSLRLSCAASGNILDADILGWYRLVPAKERELVASITDGGSTNYAESVKGRFTISRDNAKNTVYLQMNSLKPEDTAVYYCARRHRVFPSRIGHDYWGQGSQVTVSS
polyreactivity (PSR sort gate): low polyreactivity

QVQLVESGGGLVQAGGSLRLSCAASGRTFRRYAMGWYRQAPGKERELVAAISGDGSTHYADSVKGRFTISRDNAKNTVYLQMNSLKPEDTAVYYCAADYTDWYYVNYPAAPYRYDYWGQGTQVTVSS
polyreactivity (PSR sort gate): high polyreactivity

QVQLVESGGGLVQAGGSLRLSCAASGSTFHRNAMGWYRQAPGKERELVAAITSGGSTNYADSEKGRFTISRDNAKNTVYLQMNRLKPEDTPVYYCAKDDRHYNRGWYDYWGQGTQVTVSS
polyreactivity (PSR sort gate): low polyreactivity

QVQLVESGGGLVKAGGSLRLSCAASGFICVDYDRGGSRQAPGQERELVAAINWSGGSTDYADSVKGRFTISRDNAKNTVYLQMNSLKPEDTAVYYCGAEGQDCRFYWGLGTQVTVSS
polyreactivity (PSR sort gate): low polyreactivity

QVQLVESGGGLVQAGGSLRLSCAASGFTFFIYVMGWYRQAPGKEREYVAAISSSGDSTYYADSVKGRFTISRDNAKNTVYLQMNSLIPEDTAVYYCNAGDKVSSYWYDYWGQGTQVTVSS
polyreactivity (PSR sort gate): low polyreactivity

QVQLVESGGGLVQAGGSLRLSCAASGIIFGWYAMGWYRQAPGKERELVAAISSGGRTNYADSVKGRFTISRDNAKNTVYLQMNSLKPEDTEVYYCAAAYIRGSRRYDYCGQGTQVTVSS
polyreactivity (PSR sort gate): high polyreactivity

QVQLEESAGRLVQAGGSLRLSCAASGYTFGYYAMGWYRQAPGKERQLVAAISWRGARTNYADSVKGRFTISRDNAKNTVYLQMNSLKPEDTAVYYCAAGYYYGYPPRDYWGQGTQVTVSS
polyreactivity (PSR sort gate): high polyreactivity

QVQLVESGGGLVQAGGSLRLSCAASGSIFGLYAMGWYRQAPGKERELVAAITDSTGSTSYADSVKGRFTISRDNAKNTVYLQMTSLKPEDTAVYYCAAGQGRWRHGFDYWGQGTQVTVSS
polyreactivity (PSR sort gate): low polyreactivity

QVHLVESGGGLVQAGGSLRLSCAASGRIFYYNTMGWYRQAPGKERELVAAITTNGGSTYYADSVKGRFTISRDNAKNTVYLQMNSLKPEDTAVYYCNRDRYPYYYAYNYWGQGTQVTVSS
polyreactivity (PSR sort gate): low polyreactivity

QVQLVESGGGLVQAGGSLRLSCAASGRTFYGYGMGWYRQAAGKEREFVAAISYSGGSTYYADSVKGRFTISRDNAKNTVYLQMNSLKPEDTAVYYCAARNRGSGFYYWGQGTQVTVSS
polyreactivity (PSR sort gate): high polyreactivity

QVQLVESGGGLVQAGGSLRLTCAASGRTFYWNVMGWYRQAPGKERELVAITTSGGSTYYADAVKGRFTISRDNAKNTVYLQMNSLKPEDTAVYYCAAQWRSYYDQYGYDYWGQGTQVTVSS
polyreactivity (PSR sort gate): low polyreactivity

QVQLVESGGGLVQAGGSLRLSCAASGRIFTYMGWYRQAPGKERELVAGISWRGTSTYYADSVKGRFTISRDNAKNTVYLQMNSLKPEDTAVYYCAAPWAYHVRGDYWGQGTQVTVSS
polyreactivity (PSR sort gate): low polyreactivity

QVQLVESGGGLVKAGGSLRLSCAASGSTFAKYAMGWYRQAPGKERELDASIRLSGGSTYYADSVKGRFTISRDNAKNNVYLQMNSLKPEDTAVYYCNKQFATFYYGFDYYYWGQGTQVTVSS
polyreactivity (PSR sort gate): low polyreactivity

QVQLVESGGGLVQAGGSLRISCAASRSIFPLNAMGWYRQAPGKERELVAAITRSGGSTYYADSVKGRFTISRDNAKNTVYLQMNSLKPEDTAVYYCATDPEWPLPAYYYWGQGTQVTVSS
polyreactivity (PSR sort gate): low polyreactivity

QVQLVESGGGLVQAGGSLRLSCAASGSTFIRYAMGWYRQAPGKERELVAAITSGGRTNYADSVKGRFTISRDNAKNTVYLQMNSLKPEDTAVYYCAKLRWVYGRQTLMDYWGQGTQVTVSS
polyreactivity (PSR sort gate): high polyreactivity

QVQLVESGGGLVPAGGSLRLSCAASGRIITINAIGWYRKAPGKERELVAAISNSGGRTYADSVKGRFTISRDNAKNTVYLQMNSLKPEDTAVYYCAKRYRFHFWGQGTQVTVSS
polyreactivity (PSR sort gate): low polyreactivity

QVQLVESGGGLVQAGGSLRLSCAASGSILEVYAMGWYRQAPGKERELVAAISDGDSTYYADSVKGRFTISRDNAKNTVYLQMNSLKPEDTAGYYCAAEFVGTLWWYDYWGQGTQVTVSS
polyreactivity (PSR sort gate): low polyreactivity

QVQLVESVGGLVQAGGSLSLSCAASGSIFIYNARGWYRQAPGKERELVATISSGGSTTYADSVKGRFTISRDNAKNTVYLQMNSLKPEDTAVYYCATYDPPDQYFYLGYYYWGANDYWGQGTQVTVSS
polyreactivity (PSR sort gate): low polyreactivity

QVQLVESGGGLVQAGGSLRLSCAASGRISPKNAMGWYRQAPGKERELVATIRKIGGRTYYADSVKGRFTISRDNAKNTVYLQMNSLKPEDTAVYYCATDFAPSYYPDRFDYWGQGTQVTVSW
polyreactivity (PSR sort gate): low polyreactivity

QVQLVESGGGLVQAGGSLRLSCAASGFTFAYYVMGWYRQAPGKERELVAAITRSGDITSYADSVKGRFTISRDNAKNTVYLQMNSLKPEDTAVYYCNARLGYQSRRYNYWGQGTQVTVSS
polyreactivity (PSR sort gate): high polyreactivity

QVQLVESGGGLVQAGGSLRLSSAGSGSTLAYNAMGWYRQAPGKERELVAAISRGTSTYYADSVKGRFTISRDNAKNTVYLQMNSLKPEDTEVYYCAADYVIQYREYDSWGQGTQVTVSS
polyreactivity (PSR sort gate): low polyreactivity
